Results on two molecules are retold here after US20130295112A1 (AbbVie / Abbott, published 2013).

Experiment [1] deals with T1, recombinant rat beta nerve growth factor (rat, UniProt P25427 122-241). The experiment is described as follows: cell-based or functional assay.
Experiment [2] addresses recombinant human beta nerve growth factor (human) (UniProt P01138). The experiment is described as follows: cell-based or functional assay.
Experiment [3] has as its target T2, human neurotrophin 3 (NT3) (human, UniProt P20783 139-257).
T2 construct: Bought protein coated on ELISA plates
T2 sequence (looked up): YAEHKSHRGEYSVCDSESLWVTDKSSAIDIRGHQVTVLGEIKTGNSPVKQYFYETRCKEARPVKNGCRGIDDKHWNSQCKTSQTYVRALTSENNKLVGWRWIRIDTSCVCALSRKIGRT
The experiment is described as follows: ELISA, plates coated with human NT3, PG110 titrated, fluorescence read-out. As to the method:
(§1) The selectivity profile of PG110 binding to human neurotrophins was determined using an Enzyme-Linked ImmunoSorbent Assay (ELISA) binding assay. ELISA plates were coated with 100 ng/well of either human NGF (R&D Systems, Cat. No. 256-GF), brain-derived neurotrophic factor (BDNF) (R&D Systems, Cat. No. 248-BD), neurotrophin 3 (NT3) (R&D Systems, Cat. No. 267-N3) or neurotrophin 4 (NT4) (R&D Systems, Cat. No. 268-N4). PG110 was added to neurotrophin-coated wells in the concentration range 3 pM-3 nM. After washing (PBS in 0.5% (v/v) Tween 20, pH 7.3), PG110 binding was detected using a biotinylated anti-human IgG antibody (Rockland Immunochemical Inc., Cat. No. 609-1602) coupled with streptavidin-linked alkaline phosphatase (Sigma Aldrich, Cat. No. S2890), followed by development of a color reaction by addition of 4-methylumbelliferyl phosphate (Sigma Aldrich, Cat. No. M3168). The reaction product was quantified using a fluorimeter (excitation at 360 nm; emission at 440 nm).
(In general: An ELISA detects its analyte on a solid surface through an enzyme-linked reagent.)

In the next experiment the target is recombinant mouse NGF (mouse, UniProt P01139 122-241, limits assumed). The experiment is described as follows: cell-based or functional assay.
The target in experiment [4] is T1, recombinant rat beta nerve growth factor. The experiment is described as follows: cell-based or functional assay. The source holds these as a separate data set.
The target is the same in experiment [5]. The experiment is described as follows: cell-based or functional assay. The source holds these as a separate data set.
The target of experiment [6] is T3, human neurotrophin 4 (NT4) (human, UniProt P34130 81-210).
T3 construct: Bought protein coated on ELISA plates
T3 sequence (looked up): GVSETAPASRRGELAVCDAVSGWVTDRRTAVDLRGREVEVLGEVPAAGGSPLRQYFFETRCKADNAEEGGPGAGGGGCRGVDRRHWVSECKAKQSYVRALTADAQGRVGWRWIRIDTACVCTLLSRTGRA
The experiment is described as follows: ELISA, plates coated with human NT4, PG110 titrated, fluorescence read-out. The procedure: as §1

Experiment [7] deals with T4, human brain-derived neurotrophic factor (BDNF) (human, UniProt P23560 129-247).
T4 construct: Bought protein coated on ELISA plates; also called human BDNF
T4 sequence (looked up): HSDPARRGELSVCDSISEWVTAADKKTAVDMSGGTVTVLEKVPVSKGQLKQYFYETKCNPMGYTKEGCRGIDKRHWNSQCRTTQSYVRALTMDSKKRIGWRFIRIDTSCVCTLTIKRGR
Description: ELISA, plates coated with human BDNF, PG110 titrated, fluorescence read-out. The procedure:
as §1

Experiment [8] addresses T1, recombinant rat beta nerve growth factor. The experiment is described as follows: SPR (BIAcore), rrNGF immobilised on CM5 (60 RU), PG110 as analyte, 37 C, 1:1 Langmuir, mean of 3. An excerpt: BIAcore analysis was used to evaluate the binding kinetics of the interaction between PG110 and either recombinant rat NGF (rrNGF) or recombinant human NGF (rhNGF).
Recombinant human beta nerve growth factor (rhNGF) (R&D Systems, Cat. No. 256 GF/CF) or recombinant rat beta nerve growth factor (rrNGF) (R&D Systems, Cat. No. 556 GF/CF) was immobilized covalently on CM5 sensor chips (GE Healthcare, formerly Biacore AB, Uppsala, Sweden) via primary amine groups using the amine coupling kit (GE Healthcare), with HBSEP (10 mM 4-(2-hydroxyethyl)-1-piperazineethanesulfonic acid (HEPES), 150 mM NaCl, 3 mM ethylene-diamine-tetraacetic acid (EDTA) and 0.005% Tween® 20, pH 7.4) as running buffer. The sensor chip surface was activated by injection of a mixture of 400 mM N-(3-Dimethylaminopropyl)-N′-ethylcarbodiimide (EDC) and 100 mM N-Hydroxysuccinimide (NHS) (1:1, v/v) for 7 minutes at a flow rate of 10 μl/min. β-NGF (rh or rr) was diluted to 200 ng/ml in 10 mM sodium acetate pH 4.0 and the diluted solution was injected over the activated surface for various times to yield different surface densities. For quantitative interaction analyses, a surface density of 60 RU was prepared by injection of 50 μl diluted β-NGF (contact time 5 minutes). Non-reacted NHS esters were deactivated with 70 μl (contact time 7 minutes) ethanolamine solution (1 M, pH 8.5).
(SPR reads the build-up and loss of mass on a sensor chip optically.)

In general, Kd refers to a measure of binding affinity in units of concentration. What is called koff is a measure of how fast the partners let go of each other. By kon is commonly meant the second-order rate constant of association.

T1 sequence (P25427 122-241 limits assumed): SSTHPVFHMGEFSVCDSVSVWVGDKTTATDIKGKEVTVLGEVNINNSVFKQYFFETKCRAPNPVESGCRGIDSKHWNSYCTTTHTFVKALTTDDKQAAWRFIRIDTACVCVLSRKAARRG
Sequence of recombinant human beta nerve growth factor (human) (P01138 122-241 limits assumed): as the sequence (P25427 122-241 limits assumed) above, with T3S, V6I, M9R, T37M, A60D, E65D, T92M, D94G, A117V, G120A counted along it
Sequence of recombinant mouse NGF (P01139 122-241 limits assumed): as the sequence (P25427 122-241 limits assumed) above, with G40A, K50R, P61S, D94E, A117T counted along it

In the case of rat αD11 antibody (precursor of PG110), in experiment [1], the IC50, TF1 cell proliferation mediated by rat NGF (MTT), geomean, n=3; Batch 1 was 0.0448 µg/mL and the IC50, TF1 cell proliferation mediated by rat NGF (MTT), n=1; Batch 2 was found to be 0.0549 µg/mL. Besides, in [2], the IC50, TF1 cell proliferation mediated by human NGF (MTT), geomean, n=3; Batch 1 is 0.0637 µg/mL and the IC50, TF1 cell proliferation mediated by human NGF (MTT), n=1; Batch 2 turned out to be 0.107 µg/mL.

B1: PG110 (humanized anti-NGF antibody, Hu-alphaD11 variable regions with Ser-to-Pro hinge-mutated human IgG4 constant region and human kappa light chain) (antibody, V domains shown)
VH: EVQLVESGGGLVQPGGSLRLSCAASGFSLTNNNVNWVRQAPGKGLEWVGGVWAGGATDYNSALKSRFTISRDNSKNTAYLQMNSLRAEDTAVYYCARDGGYSSSTLYAMDAWGQGTLVTVSS
VL: DIQMTQSPSSLSASVGDRVTITCRASEDIYNALAWYQQKPGKAPKLLIYNTDTLHTGVPSRFSGSGSGTDYTLTISSLQPEDFATYFCQHYFHYPRTFGQGTKVEIKR
notes: expressed in CHO cells; also called PG110 antibody; PG110 mAb
As to B1, the binding result in experiment [3] is “no binding”. Also, the “IC50, TF-1 cell proliferation stimulated by 10 ng/ml mouse recombinant NGF (MTT), geomean, n=3” value with recombinant mouse NGF was 0.0308 µg/mL. Also, in experiment [4], the “IC50, TF-1 cell proliferation stimulated by 10 ng/ml rat recombinant NGF (MTT), geomean, n=5” value was 0.0278 µg/mL. In addition, the “IC50, TF1 cell proliferation mediated by rat NGF (MTT), geomean, n=2” value in experiment [5] worked out at 0.0262 µg/mL. The binding result in experiment [6] is given as “no binding”. The binding result in experiment [7] is recorded as “no binding”. For the same molecule, in experiment [8], the Kd amounted to 0.092 nM, the koff worked out at 1.5e-05 s⁻¹ and the on-rate (kon) amounted to 170000 M⁻¹ s⁻¹.
